The values that follow come from paper PMC2897766.

In assay [1] the target is Ire1^bipless, GFP- and mCherry-tagged copies (FRET pair) (yeast) (UniProt P32361). Briefly: FRET or BRET; microscopy-based FRET (spinning disc confocal) between GFP- and mCherry-tagged copies co-expressed in live yeast cells; untreated cells (no DTT).
Assay [2] has the same target. Briefly: FRET or BRET; microscopy-based FRET (spinning disc confocal) between GFP- and mCherry-tagged copies co-expressed in live yeast cells; cells treated with 5 mM DTT for 4 h (for Ire1^bipless only 'in the presence of DTT' is printed).

For the substance “Ire1^bipless, GFP- and mCherry-tagged copies (FRET pair) (from UniProt P32361 19-474; P32361 527-1115) (natural protein)”, the FRET signal turned out to be 0.17 a.u in assay [1] and 0.71 a.u in assay [2].
